Data from article PMC10659578, “Mechanism of stepwise electron transfer in six-transmembrane epithelial antigen of the prostate (STEAP) 1 and 2” (eLife, 2023).

System: T1, Cc1cc2c(cc1C)N(C[C@H](O)[C@H](O)[C@H](O)COP(=O)(O)OP(=O)(O)OC[C@H]1O[C@@H](n3cnc4c(N)ncnc43)[C@H](O)[C@@H]1O)c1[nH]c(=O)[nH]c(=O)c1N2
T1 construct: full-length, expressed and purified as in Kim et al. 2016; detergent-solubilised
Assay: rapid-scan stopped-flow heme reduction (A427), kobs vs [FADH-]
Format: biochemical, Oryctolagus cuniculus
Details: fast phase, single-turnover heme reduction, anaerobic, 20 mM HEPES pH 7.5, 150 mM NaCl, 0.1% LMNG

Chain of STEAP1 (Oryctolagus cuniculus; L230G) (chain, as listed by the source L230G): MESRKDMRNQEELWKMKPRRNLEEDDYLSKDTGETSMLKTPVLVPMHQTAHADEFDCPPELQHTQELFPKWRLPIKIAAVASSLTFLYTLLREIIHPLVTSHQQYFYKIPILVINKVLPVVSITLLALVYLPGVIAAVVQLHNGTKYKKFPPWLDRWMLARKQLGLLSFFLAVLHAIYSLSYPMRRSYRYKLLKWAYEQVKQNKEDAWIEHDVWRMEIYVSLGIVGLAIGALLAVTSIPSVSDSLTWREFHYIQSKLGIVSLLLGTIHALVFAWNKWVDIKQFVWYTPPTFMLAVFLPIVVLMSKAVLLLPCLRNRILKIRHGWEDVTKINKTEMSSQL

| Substance | Km (79% of change) | Km (60% of change) |
| --- | --- | --- |
| STEAP1 (Oryctolagus cuniculus; L230G) | 3.6 µM |  |
| STEAP1 (Oryctolagus cuniculus) |  | 4.7 µM |
